From patent US20190352376A1

Biological target: peptide of Example 1 (influenza virus)
Experiment: SPR, mAb captured on anti-mouse Fc, peptide injected

B1: F211-9D1 (antibody, V domains shown)
VL: DIVMSQSPSSLAVSVGEKVTMSCKSSQSLLNSRNQKNHLAWYQQKPGQSPKLLIYWASTRESGVPDRFSGDGSGTDFTLTISSVKAEDLAVYYCQQYYTYRTFGGGTKLEIK
VH: DVQLQESGPGLVKPSQSLSLTCSVTGYSITSDYYWNWIRQFPGNKLEWMAYIGYDGSKNYNPSLKNRISITRDTSKNQFFLKLNSVTTDDTATYYCTRDRANWDDYFDYWGQGTTLTVSS
B1 was tested, and the Kd was 0.393 nM.
